Paper PMC2186984

B1: C2 (natural protein)
chain: APSCPQNVNISGGTFTLSHGWAPGSLLTYSCPQGLYPSPASRLCKSSGQWQTPGATRSLSKAVCKPVRCPAPVSFENGIYTPRLGSYPVGGNVSFECEDGFILRGSPVRQCRPNGMWDGETAVCDNGAGHCPNPGISLGAVRTGFRFGHGDKVRYRCSSNLVLTGSSERECQGNGVWSGTEPICRQPYSYDFPEDVAPALGTSFSHMLGATNPTQKTKESLGRKIQIQRSGHLNLYLLLDCSQSVSENDFLIFKESASLMVDRIFSFEINVSVAIITFASEPKVLMSVLNDNSRDMTEVISSLENANYKDHENGTGTNTYAALNSVYLMMNNQMRLLGMETMAWQEIRHAIILLTDGKSNMGGSPKTAVDHIREILNINQKRNDYLDIYAIGVGKLDVDWRELNELGSKKDGERHAFILQDTKALHQVFEHMLDVSKLTDTICGVGNMSANASDQERTPWHVTIKPKSQETCRGALISDQWVLTAAHCFRDGNDHSLWRVNVGDPKSQWGKEFLIEKAVISPGFDVFAKKNQGILEFYGDDIALLKLAQKVKMSTHARPICLPCTMEANLALRRPQGSTCRDHENELLNKQSVPAHFVALNGSKLNINLKMGVEWTSCAEVVSQEKTMFPNLTDVREVVTDQFLCSGTQEDESPCKGESGGAVFLERRFRFFQVGLVSWGLYNPCLGSADKNSRKRAPRSKVPPPRDFHINLFRMQPWLRQHLGDVLNFLPL
B2: radiolabelled C4-binding protein (125I-C4-bp or 131I-C4-bp) (natural protein)
chain: NCGPPPTLSFAAPMDITLTETRFKTGTTLKYTCLPGYVRSHSTQTLTCNSDGEWVYNTFCIYKRCRHPGELRNGQVEIKTDLSFGSQIEFSCSEGFFLIGSTTSRCEVQDRGVGWSHPLPQCEIVKCKPPPDIRNGRHSGEENFYAYGFSVTYSCDPRFSLLGHASISCTVENETIGVWRPSPPTCEKITCRKPDVSHGEMVSGFGPIYNYKDTIVFKCQKGFVLRGSSVIHCDADSKWNPSPPACEPNSCINLPDIPHASWETYPRPTKEDVYVVGTVLRYRCHPGYKPTTDEPTTVICQKNLRWTPYQGCEALCCPEPKLNNGEITQHRKSRPANHCVYFYGDEISFSCHETSRFSAICQGDGTWSPRTPSCGDICNFPPKIAHGHYKQSSSYSFFKEEIIYECDKGYILVGQAKLSCSYSHWSAPAPQCKALCRKPELVNGRLSVDKDQYVEPENVTIQCDSGYGVVGPQSITCSGNRTWYPEVPKCEWETPEGCEQVLTGKRLMQCLPNPEDVKMALEVYKLSLEIEQLELQRDSARQSTLDKEL
modifications: 125I or 131I label (iodinated by means of Enzymobeads)

Biological target: cell-bound C4b (on EAC4 or EAC14 cells) (human) (UniProt P0C0L4)
Test: radioligand binding

| Binder | maximum percent of bound 125I-C4-bp released by C2 [%] | Ka [M⁻¹] | percent of 125I-C4-bp incorporated into the cells [%] | percent of bound C4-bp released in the absence of C2 [%] | stoichiometry N (C4-bp molecules bound per C4b molecule) |
| --- | --- | --- | --- | --- | --- |
| B1 | 50 | – | – | – | – |
| B2 | – | 4.6e+08 | 10.5 | 8 | 0.43 |
